# Assay results published in the RNAGym collection of RNA variant scans (doi:10.7554/elife.80360).
# B1: HDV Ribozyme (parent)
# chain: GGCCGGCAUGGUCCCAGCCUCCUCGCUGGCGCCGGCUGGGCAACAUUCCGAGGGGACCGUCCCCUCGGUAAUGGCGAAUGGGACCCA
# Variants of: B1
# Test: self-cleavage, relative activity (ratio to wild type); higher = more cleavage; co-transcriptional
row,Variant,self-cleavage
1,C22U C36U,0.254
2,C22G C44U,0.0361
3,C22G C44G,0.0437
4,U23A A45G,1.15
5,U23A A45U,0.727
6,C22G G76C,0.151
7,C22G G76U,0.089
8,C22U C24G,0.0563
9,C22U C26G,0.492
10,C22U C26U,0.847
11,C22U G81U,0.04
12,C22U G81C,0.237
13,C22U G35A,0.109
14,C22U G35C,0
15,C22U G35U,0.0511
16,C22G G73A,0.0692
17,C22G G73U,0
18,C22G G73C,0.0845
19,C22G C62G,0.111
20,C22G C62A,0.106
21,C22G G53A,0.0779

row,Variant,self-cleavage
1,C22G G53C,0
2,C22U U79A,0.0923
3,C22U U46C,0.268
4,C22U U46A,0.295
5,C22G G52C,0.0652
6,C22U A77C,0.141
7,C22U A77G,0.369
8,C22U C44U,0.249
9,C22U C75U,0.214
10,C22U C75A,0.0282
11,C22U C62A,0.623
12,C22U C62G,0.431
13,C22G C84G,0.0923
14,C22G C84A,0.0369
15,C22U G31C,0
16,C22U G31U,0.0817
17,U23A A43U,0.481
18,U23A A43C,0.312
19,C22G G68U,0.0583
20,C22G C48G,0.0489
21,C22G G80U,0.142

row,Variant,self-cleavage
1,C22U C41G,0.554
2,C22U C41A,0.674
3,C22U C41U,0.656
4,C22U A45U,0.325
5,C22U A45C,0.113
6,C22G U37G,0.0831
7,C22G U37C,0.136
8,C22U G34C,0.0852
9,C22U G34A,0.0468
10,C22U A51U,0.708
11,C22U G55A,0.717
12,C22G G82A,0.0723
13,C22G G82U,0.0652
14,C22U G29C,0.0405
15,C22G C36A,0.0773
16,C22G C36G,0.123
17,C22U G25C,0.0852
18,C22G G59U,0.0817
19,C22U U23G,0.246
20,C22U U23A,0.845
21,C22G C86G,0.0779

row,Variant,self-cleavage
1,C22G G39C,0.0554
2,C22G G50U,0.0297
3,C22U G50U,0.521
4,C22U A43C,0.0282
5,C22G G34C,0.0811
6,C22G C64G,0.0723
7,C22G C64A,0.125
8,C22U G52C,0.635
9,C22U C33A,0.0692
10,C22G G25C,0.0665
11,C22G G25U,0.102
12,C22G U60G,0
13,C22G U60A,0.141
14,C22G C30U,0.0723
15,C22G G40U,0.104
16,C22U C61A,0.641
17,C22U C61U,0.62
18,C22U C64U,0.892
19,C22G C85A,0
20,C22G C85U,0.0845
21,C22U G82A,0.101
